Consider three molecules from patent US20220259278A1 (PROGEN, published 2022).

Some results are limits rather than exact numbers.

The target in one experiment is T1, Fc gamma receptor I (UniProt P12314 16-288, limits assumed).
T1 construct: also called FcγRI
Description: BLI, fitting view, three repeats. (BLI is a label-free optical method that tracks binding on a fibre tip over time.)

Another experiment has as its target T2, Fc gamma receptor IIIa (UniProt P08637 17-208).
T2 construct: also called FcγRIIIa
Description: BLI, fitting view, three repeats.

For a further experiment, the target named is T3, human CD154 (human, UniProt P29965 113-261, limits assumed).
T3 construct: Coupled to amine reactive (AR2G) biosensors at 5 ug/ml; also called hCD154; CD40L
T3 sequence (looked up): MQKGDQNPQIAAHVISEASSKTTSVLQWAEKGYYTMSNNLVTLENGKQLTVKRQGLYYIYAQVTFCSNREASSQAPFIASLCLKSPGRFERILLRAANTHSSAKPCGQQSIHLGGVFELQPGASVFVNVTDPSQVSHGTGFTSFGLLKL
Description: BLI (Octet K2), CD154 amine-coupled to AR2G sensor, antibody in solution; average. How it is done:
To this end, the present inventors first attached CD154 protein to 96-well plates using Dip and Read™ Amine Reactive 2nd Generation (AR2G) Reagent Kit (forteBio, Cat No. 18-5092). Specifically, after dispensing 200 μl of DW in a 96-well plate, an amine biosensor included in the kit was inserted and hydrated for 10 minutes. Subsequently, after dispensing 200 μl of DW was additionally to the plate, EDC:NHS was mixed in a 1:1 ratio in a volume corresponding to 1/20 of the required sample, then diluted in DW, and 200 μl was dispensed into the 96-well plate. Subsequently, CD154 protein was diluted to 5 μg/ml in 10 mM acetate solution (pH 6.0), and 200 μl was dispensed into the 96-well plate. Then, 200 μl of 1 M ethanolamine was added to the 96-well plate, and the biosensor plate and the sample plate were inserted into Octet® K2 BLI analyzer and signals were measured. After the measurement was completed, 200 μl of the 1× Kinetics buffer was added to the sample plate, and then a baseline was determined.

T2 sequence (P08637 17-208 limits assumed): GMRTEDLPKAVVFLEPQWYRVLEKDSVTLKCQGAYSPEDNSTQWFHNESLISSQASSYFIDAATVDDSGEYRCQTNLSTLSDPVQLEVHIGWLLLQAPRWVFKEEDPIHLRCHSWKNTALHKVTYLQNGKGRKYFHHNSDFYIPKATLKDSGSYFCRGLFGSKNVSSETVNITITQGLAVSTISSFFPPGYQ
T1 sequence (P12314 16-288 limits assumed): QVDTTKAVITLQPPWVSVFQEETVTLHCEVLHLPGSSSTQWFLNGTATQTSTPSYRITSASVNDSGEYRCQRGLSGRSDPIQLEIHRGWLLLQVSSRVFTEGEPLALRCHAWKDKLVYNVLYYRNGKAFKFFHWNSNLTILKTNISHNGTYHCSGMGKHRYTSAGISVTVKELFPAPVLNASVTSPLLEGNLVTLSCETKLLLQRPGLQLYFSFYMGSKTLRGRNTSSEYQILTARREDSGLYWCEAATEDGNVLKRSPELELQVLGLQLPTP

B1: GLP-1E-Fc fusion protein PG-11 (Fc fusion)
chain: HGEGTFTSDVSSYLEGQAAKEFIAWLVKGGPSSGAPPPSGGGGSGGGGSGGGGSEKEKEEQEERTHTCPPCPSHTQPLGVFLFPPKPKDQLMISRTPEVTCVVVDVSQEDPEVQFNWYVDGVEVHNAKTKPREEQFNSTYRVVSVLTVLHQDWLNGKEYKCKVSNKGLPSSIEKTISKAKGQPREPQVYTLPPSQEEMTKNQVSLTCLVKGFYPSDIAVEWESNGQPENNYKTTPPVLDSDGSFFLYSRLTVDKSRWQEGNVFSCSVLHEALHNHYTQKSLSLSLGK
notes: 6 entered; also called modified Fc region protein; fusion protein containing NTIG
B1: the binding result with Fc gamma receptor I and with Fc gamma receptor IIIa was “no binding” throughout.

B2: chimeric anti-CD154 antibody C10M (antibody, V domains shown, not shown: a dimerising Fc or GST)
VH: EVQLQQSGSELVKPGASVKLSCKASGYIFTSYYMYWVKQRPGQGLEWIGEINPSNGDTNFNEKFKSKATLTVDKSSSTAYMQLISLTSEDSAVYYCTRSDGRNDMDSWGQGTTVTVSS
VL: DIQLTQSPASLAVSLGQRATISCRASQRVSSSTYSYMHWYQQKPGQPPKLLIKYASNLESGVPARFSGSGSGTDFTLNIHPVEEEDSATYYCQHSWEIPPTFGGGTKLEIKR
notes: Mouse-derived anti-CD154 Fab with a mutant human IgG1 Fc region; also called anti-CD154 chimeric antibody
As usually defined, the koff is the rate constant with which the complex falls apart. Lower therefore signals slow dissociation. The kon is the rate constant with which the complex forms. Read a high kon as faster complex formation. In the experiment with human CD154, B2 had a koff of less than 1e-07 s⁻¹ and an on-rate constant (kon) of 510000 M⁻¹ s⁻¹.

B3: chimeric hybrid antibody PG-400-1 (antibody, V domains shown)
VH: EVQLQQSGSELVKPGASVKLSCKASGYIFTSYYMYWVKQRPGQGLEWIGEINPSNGDTNFNEKFKSKATLTVDKSSSTAYMQLISLTSEDSAVYYCTRSDGRNDMDSWGQGTTVTVSS
VL: DIQLTQSPASLAVSLGQRATISCRASQRVSSSTYSYMHWYQQKPGQPPKLLIKYASNLESGVPARFSGSGSGTDFTLNIHPVEEEDSATYYCQHSWEIPPTFGGGTKLEIKR
In the experiment with human CD154, B3 showed a koff of less than 1e-07 s⁻¹ and a kon of 807000 M⁻¹ s⁻¹.
